# Reference: publication PMC4768490 (Structure (London, England : 1993), 2015)
# T1: Kap60 lacking the IBB (ΔIBB-Kap60) (S. cerevisiae, UniProt Q02821 88-509)
# T1 sequence: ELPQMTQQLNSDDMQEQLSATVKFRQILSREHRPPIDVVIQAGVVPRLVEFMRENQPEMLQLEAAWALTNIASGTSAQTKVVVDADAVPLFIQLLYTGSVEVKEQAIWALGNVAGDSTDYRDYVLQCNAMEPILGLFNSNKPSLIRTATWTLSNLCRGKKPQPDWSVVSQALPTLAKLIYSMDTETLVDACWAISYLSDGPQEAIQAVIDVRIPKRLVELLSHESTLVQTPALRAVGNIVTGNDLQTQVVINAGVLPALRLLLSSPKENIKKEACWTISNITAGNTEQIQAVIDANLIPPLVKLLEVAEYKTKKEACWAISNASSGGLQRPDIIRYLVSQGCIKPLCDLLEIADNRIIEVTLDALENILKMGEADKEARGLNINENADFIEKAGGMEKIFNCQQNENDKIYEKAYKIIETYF
# Molecular target: Kap60 lacking the IBB (ΔIBB-Kap60) (S. cerevisiae) (UniProt Q02821)
# Assay: ITC
row,Molecule,Kd [nM]
1,"nucleoplasmin bipartite NLS (NP-NLS), control (peptide)",46

# Molecular target: T1, Kap60 lacking the IBB (ΔIBB-Kap60)
# Assay: ITC
row,Molecule,Kd [nM]
1,"MBP-tagged h1NLS (MBP-h1NLS), wild type (peptide, UniProt Q03707 171-221, looked up) DTRKKRKDPDSDDWSESNSKENKIDNKHLNLLSSDSEIEQDYQKAKKRKTS",30.5 ± 10
2,"MBP-h1NLS with Ala-mutation at position P2' (R176A) (peptide, UniProt Q03707 171-221, looked up) DTRKKAKDPDSDDWSESNSKENKIDNKHLNLLSSDSEIEQDYQKAKKRKTS",123 ± 8.6
3,"MBP-h1NLS with Ala-mutation at position P2 (K190A) (peptide, UniProt Q03707 171-221, looked up) DTRKKRKDPDSDDWSESNSAENKIDNKHLNLLSSDSEIEQDYQKAKKRKTS",68.6 ± 14
4,"MBP-h1NLS with Ala-mutations at positions P2' and P2 (R176A, K190A) (peptide, UniProt Q03707 171-221, looked up) DTRKKAKDPDSDDWSESNSAENKIDNKHLNLLSSDSEIEQDYQKAKKRKTS",140 ± 26
5,"TNKRKREQISTDNEAKMQIQEEKSPKKKRKKRSSKANK (peptide, UniProt Q03281 100-137, looked up) [MBP-tagged h2NLS (MBP-h2NLS), wild type]",27.3 ± 8
6,"TNKAKREQISTDNEAKMQIQEEKSPKKKRKKRSSKANK (peptide, UniProt Q03281 100-137, looked up) [MBP-h2NLS with Ala-mutation at position P2' (R103A)]",132 ± 27
7,"TNKAKREQISTDNEAKMQIQEEKSPKAKRKKRSSKANK (peptide, UniProt Q03281 100-137, looked up) [MBP-h2NLS with Ala-mutations at positions P2' and P2 (R103A, K126A)]",168 ± 32
8,"TNKRKREQISTDNEAKMQIQEEKSPKAKRKKRSSKANK (peptide, UniProt Q03281 100-137, looked up) [MBP-h2NLS with Ala-mutation at position P2 (K126A)]",106 ± 15

# Molecular target: T1, Kap60 lacking the IBB (ΔIBB-Kap60)
# Assay: pull-down
row,Molecule,percent of the ΔIBB-Kap60:h2NLS complex dissociated at 10-fold excess of Nup2 [%]
1,"MBP-Nup2 (res. 1-51) (domain or fragment, S. cerevisiae, UniProt P32499 1-51, looked up) MAKRVADAQIQRETYDSNESDDDVTPSTKVASSAVMNRRKIAMPKRRMAFK",60
